Reference: paper PMC4009068

What was measured:
[1] = target: Atg19 (wild type full-length protein) (yeast) (UniProt P35193); assay: ITC
[2] = target: Atg19 C-terminus (yeast) (UniProt P35193); assay: SEC

Kd [1]: 35 µM | stoichiometry N (Atg8 molecules per 1 Atg19 C-terminus) [2]: 4.14
Substance: Atg8 (from UniProt P38182 1-117) (natural protein)
